To fix the notation:
B1: CPEB3 Ribozyme (parent)
chain: GGGGGCCACAGCAGAAGCGUUCACGUCGCGGCCCCUGUCAGAUUCUGGUGAAUCUGCGAAUUCUGCUGU

Variants of B1 are the subject of this data set. In words: self-cleavage, relative activity (ratio to wild type); higher = more cleavage; co-transcriptional.
For the variant GGGGGCAACAGCAGAAGCGUUCACGUCGUGGCCCCUGUCAGAUUCUGGUGAAUCUGCGAAUUCUGCUGU, the self-cleavage was 0.261. As for GGGGGCAACAGCAGAAGCGUUCACGUCGGGGCCCCUGUCAGAUUCUGGUGAAUCUGCGAAUUCUGCUGU, the figure is 0.12; as for GGGGGCAACAGGAGAAGCGUUCACGUCGCGGCCCCUGUCAGAUUCUGGUGAAUCUGCGAAUUCUGCUGU, 0.378; as for GGGGGCAACAGAAGAAGCGUUCACGUCGCGGCCCCUGUCAGAUUCUGGUGAAUCUGCGAAUUCUGCUGU, 0.147.

Regarding GGGGGCAACAGCAGAAGCGGUCACGUCGCGGCCCCUGUCAGAUUCUGGUGAAUCUGCGAAUUCUGCUGU, the self-cleavage was determined as 0.127.

For GGGGGCAACAGCAGAAGCGCUCACGUCGCGGCCCCUGUCAGAUUCUGGUGAAUCUGCGAAUUCUGCUGU, the self-cleavage worked out at 0.211. Then GGGGGCAACAGCAGAAGCGAUCACGUCGCGGCCCCUGUCAGAUUCUGGUGAAUCUGCGAAUUCUGCUGU, with 0.0917. As for GGGGGCAACAGCAGAAGCGUUCACGUCGCGGCGCCUGUCAGAUUCUGGUGAAUCUGCGAAUUCUGCUGU, the self-cleavage came to 0.226.

In the case of GGGGGCAACAGCAGAAGCGUUCACGUCGCGGCACCUGUCAGAUUCUGGUGAAUCUGCGAAUUCUGCUGU, the self-cleavage worked out at 0.119. Then GGGGGCAACAGCAGAAGCGUUCACGUCGCGGCUCCUGUCAGAUUCUGGUGAAUCUGCGAAUUCUGCUGU, with 0.489; and GGGGGCAACAGCAGAAGCGUACACGUCGCGGCCCCUGUCAGAUUCUGGUGAAUCUGCGAAUUCUGCUGU, with 0.576; and GGGGGCAACAGCAGAAGCGUGCACGUCGCGGCCCCUGUCAGAUUCUGGUGAAUCUGCGAAUUCUGCUGU, with 0.077.

In the case of GGGGGCAACAGCAGAAGCGUCCACGUCGCGGCCCCUGUCAGAUUCUGGUGAAUCUGCGAAUUCUGCUGU, the self-cleavage came out at 0.266.

Turning to GGGGGCAACAGCAGAAGCGUUCACGUCCCGGCCCCUGUCAGAUUCUGGUGAAUCUGCGAAUUCUGCUGU, the self-cleavage amounted to 0.11. As for GGGGGCAACAGCAGAAGCGUUCACGUCUCGGCCCCUGUCAGAUUCUGGUGAAUCUGCGAAUUCUGCUGU, the figure is 0.128. Then GGGGGCAACAGCAGAAGCGUUCACGUCACGGCCCCUGUCAGAUUCUGGUGAAUCUGCGAAUUCUGCUGU, with 0.128.

On to GGGGGCAACAGCAGAAGCGUUCACGUCGCGGCCCCUGUCAGAUUGUGGUGAAUCUGCGAAUUCUGCUGU, for which the self-cleavage came to 0.421. As for GGGGGCAACAGCAGAAGCCUUCACGUCGCGGCCCCUGUCAGAUUCUGGUGAAUCUGCGAAUUCUGCUGU, the self-cleavage was 0.143. Turning to GGGGGCAACAGCAGAAGCUUUCACGUCGCGGCCCCUGUCAGAUUCUGGUGAAUCUGCGAAUUCUGCUGU, the self-cleavage stood at 0.163. Then GGGGGCAACAGCAGAAGCGUUCACGUCGCGGCCCCUGUCAGAUUCUGGUGAAUCUGCUAAUUCUGCUGU, with 0.645.

As to GGGGGCAACAGCAGAAGCGUUCACGUCGCGGCCCCUGUCAGAUUCUGGUGAAUCUGCAAAUUCUGCUGU, the self-cleavage was determined as 0.338.

For the variant GGGGGCAACAGCAAAAGCGUUCACGUCGCGGCCCCUGUCAGAUUCUGGUGAAUCUGCGAAUUCUGCUGU, the self-cleavage worked out at 0.167. Then GGGGGCAACAGCAUAAGCGUUCACGUCGCGGCCCCUGUCAGAUUCUGGUGAAUCUGCGAAUUCUGCUGU, with 0.131. As for GGGGGCAACAGCACAAGCGUUCACGUCGCGGCCCCUGUCAGAUUCUGGUGAAUCUGCGAAUUCUGCUGU, the figure is 0.137; as for GGGGGCAACAGCAGAAGCGUUCACGUUGCGGCCCCUGUCAGAUUCUGGUGAAUCUGCGAAUUCUGCUGU, 0.142. Then GGGGGCAACAGCAGAAGCGUUCACGUAGCGGCCCCUGUCAGAUUCUGGUGAAUCUGCGAAUUCUGCUGU, with 0.0789. In the case of GGGGGCAACAGCAGAAGCGUUCACGUGGCGGCCCCUGUCAGAUUCUGGUGAAUCUGCGAAUUCUGCUGU, the self-cleavage was determined as 0.133. In the case of GGGGGCAACAGCAGAAGCGUUCACGUCGCGGCCCCUGUCAGAUUCUGUUGAAUCUGCGAAUUCUGCUGU, the self-cleavage was found to be 0.696. As for GGGGGCAACAGCAGAAGCGUUCACGUCGCGGCCCCUGUCAGAUUCUGAUGAAUCUGCGAAUUCUGCUGU, the figure is 0.67; as for GGGGGCAACAGCAGAAGCGUUCACGUCGCGGCCGCUGUCAGAUUCUGGUGAAUCUGCGAAUUCUGCUGU, 0.136; as for GGGGGCAACAGCAGAAGCGUUCACGUCGCGGCCUCUGUCAGAUUCUGGUGAAUCUGCGAAUUCUGCUGU, 0.487. Regarding GGGGGCAACAGCAGAAGCGUUCACGUCGCGGCCACUGUCAGAUUCUGGUGAAUCUGCGAAUUCUGCUGU, the self-cleavage stood at 0.106. As for GGGGGCAACAGCAGAAGCGUUCACGUCGCGGCCCCUGUCAGAUUCUGGUGAAUCUACGAAUUCUGCUGU, the self-cleavage stood at 0.34. As for GGGGGCAACAGCAGAAGCGUUCACGUCGCGGCCCCUGUCAGAUUCUGGUGAAUCUCCGAAUUCUGCUGU, the figure is 0.243; as for GGGGGCAACAGCAGAAGCGUUCACGUCGCGACCCCUGUCAGAUUCUGGUGAAUCUGCGAAUUCUGCUGU, 0.499. Then GGGGGCAACAGCAGAAGCGUUCACGUCGCGCCCCCUGUCAGAUUCUGGUGAAUCUGCGAAUUCUGCUGU, with 0.159; and GGGGGCAACAGCAGAAGAGUUCACGUCGCGGCCCCUGUCAGAUUCUGGUGAAUCUGCGAAUUCUGCUGU, with 0.0823; and GGGGGCAACAGCAGAAGCGUUCACGUCGCGGCCCCCGUCAGAUUCUGGUGAAUCUGCGAAUUCUGCUGU, with 0.223. Then GGGGGCAACAGCAGAAGCGUUCACGUCGCGGCCCCGGUCAGAUUCUGGUGAAUCUGCGAAUUCUGCUGU, with 0.205.

For the origin of these results see the RNAGym collection of RNA variant scans (doi:10.7554/elife.80360).
